Tests used:
PTK7 (on HCT116 cells) = biological target: T1, PTK7 (on HCT116 cells) (UniProt Q13308); assay: flow cytometry on HCT116 cells; conditions: live cells, PTK7 inferred, HSA beads: DPBS + 5 mM Mg2+, room temperature, 1 h, beads blocked with BSA/yeast tRNA, 4.5 g/L glucose, 5 mM MgCl2, 0.1 mg/ml yeast tRNA, 1 mg/ml …
T1 sequence: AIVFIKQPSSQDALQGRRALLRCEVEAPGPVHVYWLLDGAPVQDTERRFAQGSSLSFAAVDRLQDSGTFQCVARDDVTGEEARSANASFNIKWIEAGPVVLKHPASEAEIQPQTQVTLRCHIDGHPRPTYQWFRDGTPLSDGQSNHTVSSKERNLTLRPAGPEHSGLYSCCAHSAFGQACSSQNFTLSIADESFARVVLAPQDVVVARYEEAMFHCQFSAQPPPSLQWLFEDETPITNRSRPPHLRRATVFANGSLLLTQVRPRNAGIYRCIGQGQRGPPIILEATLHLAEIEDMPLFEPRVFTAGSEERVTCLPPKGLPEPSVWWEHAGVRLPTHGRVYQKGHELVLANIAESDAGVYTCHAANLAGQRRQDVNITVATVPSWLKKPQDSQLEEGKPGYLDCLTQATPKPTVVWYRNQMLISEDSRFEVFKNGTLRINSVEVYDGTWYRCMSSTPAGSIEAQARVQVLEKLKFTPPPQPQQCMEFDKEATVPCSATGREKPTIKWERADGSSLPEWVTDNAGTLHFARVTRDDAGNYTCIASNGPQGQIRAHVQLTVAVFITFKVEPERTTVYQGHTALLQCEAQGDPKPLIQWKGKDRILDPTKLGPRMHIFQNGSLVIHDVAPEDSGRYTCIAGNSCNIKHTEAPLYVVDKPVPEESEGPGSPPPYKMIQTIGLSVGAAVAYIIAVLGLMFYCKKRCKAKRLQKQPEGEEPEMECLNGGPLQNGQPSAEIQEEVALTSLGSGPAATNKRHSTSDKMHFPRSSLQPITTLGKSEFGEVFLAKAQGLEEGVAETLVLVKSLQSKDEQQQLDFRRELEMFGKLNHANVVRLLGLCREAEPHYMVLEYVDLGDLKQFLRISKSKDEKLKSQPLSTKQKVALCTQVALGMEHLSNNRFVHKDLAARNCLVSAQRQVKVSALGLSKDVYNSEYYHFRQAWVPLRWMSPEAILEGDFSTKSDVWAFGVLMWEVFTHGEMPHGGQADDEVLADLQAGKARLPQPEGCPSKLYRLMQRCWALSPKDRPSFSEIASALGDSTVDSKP

[1] = biological target: human serum albumin (HSA) (Homo sapiens) (UniProt P02768); assay: flow cytometry on HSA-coated beads; conditions: HSA beads: DPBS + 5 mM Mg2+, room temperature, 1 h, beads blocked with BSA/yeast tRNA, cells: DPBS, 4.5 g/L glucose, 5 mM MgCl2, 0.1 mg/ml yeast tRNA, 1 mg/ml …
EpCAM (on HCT116 cells) = biological target: T2, EpCAM (on HCT116 cells) (UniProt P16422); assay: flow cytometry on HCT116 cells; conditions: live cells, EpCAM inferred, HSA beads: DPBS + 5 mM Mg2+, room temperature, 1 h, beads blocked with BSA/yeast tRNA, 4.5 g/L glucose, 5 mM MgCl2, 0.1 mg/ml yeast tRNA, 1 mg/ml …
T2 sequence: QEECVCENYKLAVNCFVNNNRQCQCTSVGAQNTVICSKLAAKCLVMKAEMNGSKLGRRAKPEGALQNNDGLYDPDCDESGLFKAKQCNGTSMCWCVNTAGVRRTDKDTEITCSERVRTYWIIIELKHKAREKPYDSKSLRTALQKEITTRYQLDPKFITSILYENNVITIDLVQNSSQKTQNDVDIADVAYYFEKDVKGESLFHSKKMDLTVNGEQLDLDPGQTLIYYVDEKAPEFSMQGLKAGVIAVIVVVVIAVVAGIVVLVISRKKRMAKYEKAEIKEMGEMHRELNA

[2] = biological target: human serum albumin (HSA) (Homo sapiens) (UniProt P02768); assay: flow cytometry; conditions: N = artificial base F; HSA beads: DPBS + 5 mM Mg2+, room temperature, 1 h, beads blocked with BSA/yeast tRNA; cells: DPBS, 4.5 g/L glucose, 5 mM MgCl2, 0.1 mg/ml yeast tRNA, 1 mg/ml …

For “ATCTAACTGCTGCGCCGCCGGGAAAATACTGTACGGTTAGA [Sgc8]”, the Kd (PTK7 (on HCT116 cells)) was 3.2 nM.
Work on “NNATCTAACTGCTGCGCCGCCGGGANANTANTGTACGGTTAGANN [Sgc8-F23]” yielded a Kd (PTK7 (on HCT116 cells); N = artificial base F (3,5-bis(trifluoromethyl)benzene), 7 F) of 17.1 nM and a Kd ([1]; 5 mM Mg2+, in the SYL3C section printed as 191.8 nM, N = artificial base F (3,5-bis(trifluoromethyl)benzene), 7 F) of 194 nM.
In the case of “CACTACAGAGGTTGCGTCTGTCCCACGTTGTCATGGGGGGTTGGCCTG [SYL3C]”, the Kd (EpCAM (on HCT116 cells)) is reported as 321 nM.
With “NNATCTAACTGCTGCGCCGCCGGGAAAATACTGTACGGTTAGANN [Sgc8-F20]” the Kd ([1]; N = artificial base F) was 403 nM.
Sequence “NNCACTACAGAGGTTGCGTCTGTCCCACGTTGTCATGGGGGGTTGGCCTGNN [SYL3C-F20]” has a Kd (EpCAM (on HCT116 cells); N = artificial base F) of 369 nM and a Kd [2] of 1090 nM.

Reference: PMC8989545
